In patent publication US20160024159A1:
Several values for one entry are separate records, joined by “and”; a condition that tells them apart may be missing. Equal entries are not always repeated.

Legend:
Assay in all cases: cell-based or functional assay
[1] = biological target: hNav1.7 channels in HEK293 cell (human) (UniProt Q15858)
[2] = biological target: human voltage-gated sodium channel Nav1.5 (human) (UniProt Q14524)
[3] = biological target: human voltage-gated sodium channel Nav1.7 (human) (UniProt Q15858)
[4] = biological target: human voltage-gated sodium channel Nav1.4 (human) (UniProt P35499)
Sequence of human voltage-gated sodium channel Nav1.4 (human) (P35499 whole entry): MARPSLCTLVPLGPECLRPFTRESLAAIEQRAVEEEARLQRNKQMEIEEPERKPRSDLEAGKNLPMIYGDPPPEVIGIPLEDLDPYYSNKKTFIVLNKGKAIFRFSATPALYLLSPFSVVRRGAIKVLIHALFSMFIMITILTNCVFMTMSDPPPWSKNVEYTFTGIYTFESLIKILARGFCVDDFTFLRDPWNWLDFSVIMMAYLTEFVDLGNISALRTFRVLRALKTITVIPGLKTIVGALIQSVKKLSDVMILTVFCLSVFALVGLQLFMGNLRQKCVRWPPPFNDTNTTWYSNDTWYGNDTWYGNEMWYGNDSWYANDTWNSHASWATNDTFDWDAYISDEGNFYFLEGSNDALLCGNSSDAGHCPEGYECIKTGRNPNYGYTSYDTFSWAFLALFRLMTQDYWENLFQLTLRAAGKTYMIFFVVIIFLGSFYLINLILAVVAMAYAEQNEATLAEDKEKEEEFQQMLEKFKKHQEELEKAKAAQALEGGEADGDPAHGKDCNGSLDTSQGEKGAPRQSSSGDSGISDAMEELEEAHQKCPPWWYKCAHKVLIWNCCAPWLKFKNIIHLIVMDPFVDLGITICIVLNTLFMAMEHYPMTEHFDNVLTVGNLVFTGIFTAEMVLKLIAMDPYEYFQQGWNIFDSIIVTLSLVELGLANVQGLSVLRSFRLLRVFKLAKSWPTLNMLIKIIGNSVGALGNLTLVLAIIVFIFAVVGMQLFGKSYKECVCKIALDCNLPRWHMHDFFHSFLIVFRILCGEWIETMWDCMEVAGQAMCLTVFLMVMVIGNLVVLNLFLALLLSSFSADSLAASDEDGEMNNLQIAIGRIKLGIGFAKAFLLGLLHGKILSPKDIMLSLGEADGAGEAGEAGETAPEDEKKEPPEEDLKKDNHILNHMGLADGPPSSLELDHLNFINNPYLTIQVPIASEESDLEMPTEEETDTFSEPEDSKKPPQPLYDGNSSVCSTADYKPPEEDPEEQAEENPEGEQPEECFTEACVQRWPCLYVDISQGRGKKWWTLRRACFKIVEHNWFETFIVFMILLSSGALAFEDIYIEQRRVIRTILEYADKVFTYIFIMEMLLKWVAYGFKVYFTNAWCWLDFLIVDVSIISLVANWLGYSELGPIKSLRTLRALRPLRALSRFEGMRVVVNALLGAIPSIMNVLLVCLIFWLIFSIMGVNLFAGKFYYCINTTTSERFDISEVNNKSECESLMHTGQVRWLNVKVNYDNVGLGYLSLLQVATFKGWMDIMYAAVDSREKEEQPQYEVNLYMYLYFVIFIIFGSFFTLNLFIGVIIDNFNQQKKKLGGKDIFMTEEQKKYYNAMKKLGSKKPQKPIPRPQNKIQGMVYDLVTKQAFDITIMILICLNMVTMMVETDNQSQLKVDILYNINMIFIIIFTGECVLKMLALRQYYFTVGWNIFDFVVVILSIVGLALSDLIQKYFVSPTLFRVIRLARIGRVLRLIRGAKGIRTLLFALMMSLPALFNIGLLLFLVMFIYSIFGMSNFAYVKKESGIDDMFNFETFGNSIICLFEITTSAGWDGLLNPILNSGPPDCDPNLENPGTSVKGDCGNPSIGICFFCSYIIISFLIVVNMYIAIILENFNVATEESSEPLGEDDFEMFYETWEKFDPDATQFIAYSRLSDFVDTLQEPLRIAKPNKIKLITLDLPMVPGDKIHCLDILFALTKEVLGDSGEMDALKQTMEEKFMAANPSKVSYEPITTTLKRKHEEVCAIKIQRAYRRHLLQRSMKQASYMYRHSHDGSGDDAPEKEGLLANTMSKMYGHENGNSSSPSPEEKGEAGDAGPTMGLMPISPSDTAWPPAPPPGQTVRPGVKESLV

[5] = biological target: human voltage-gated sodium channel Nav1.3 (human) (UniProt Q9NY46)
Sequence of human voltage-gated sodium channel Nav1.3 (human) (Q9NY46 whole entry): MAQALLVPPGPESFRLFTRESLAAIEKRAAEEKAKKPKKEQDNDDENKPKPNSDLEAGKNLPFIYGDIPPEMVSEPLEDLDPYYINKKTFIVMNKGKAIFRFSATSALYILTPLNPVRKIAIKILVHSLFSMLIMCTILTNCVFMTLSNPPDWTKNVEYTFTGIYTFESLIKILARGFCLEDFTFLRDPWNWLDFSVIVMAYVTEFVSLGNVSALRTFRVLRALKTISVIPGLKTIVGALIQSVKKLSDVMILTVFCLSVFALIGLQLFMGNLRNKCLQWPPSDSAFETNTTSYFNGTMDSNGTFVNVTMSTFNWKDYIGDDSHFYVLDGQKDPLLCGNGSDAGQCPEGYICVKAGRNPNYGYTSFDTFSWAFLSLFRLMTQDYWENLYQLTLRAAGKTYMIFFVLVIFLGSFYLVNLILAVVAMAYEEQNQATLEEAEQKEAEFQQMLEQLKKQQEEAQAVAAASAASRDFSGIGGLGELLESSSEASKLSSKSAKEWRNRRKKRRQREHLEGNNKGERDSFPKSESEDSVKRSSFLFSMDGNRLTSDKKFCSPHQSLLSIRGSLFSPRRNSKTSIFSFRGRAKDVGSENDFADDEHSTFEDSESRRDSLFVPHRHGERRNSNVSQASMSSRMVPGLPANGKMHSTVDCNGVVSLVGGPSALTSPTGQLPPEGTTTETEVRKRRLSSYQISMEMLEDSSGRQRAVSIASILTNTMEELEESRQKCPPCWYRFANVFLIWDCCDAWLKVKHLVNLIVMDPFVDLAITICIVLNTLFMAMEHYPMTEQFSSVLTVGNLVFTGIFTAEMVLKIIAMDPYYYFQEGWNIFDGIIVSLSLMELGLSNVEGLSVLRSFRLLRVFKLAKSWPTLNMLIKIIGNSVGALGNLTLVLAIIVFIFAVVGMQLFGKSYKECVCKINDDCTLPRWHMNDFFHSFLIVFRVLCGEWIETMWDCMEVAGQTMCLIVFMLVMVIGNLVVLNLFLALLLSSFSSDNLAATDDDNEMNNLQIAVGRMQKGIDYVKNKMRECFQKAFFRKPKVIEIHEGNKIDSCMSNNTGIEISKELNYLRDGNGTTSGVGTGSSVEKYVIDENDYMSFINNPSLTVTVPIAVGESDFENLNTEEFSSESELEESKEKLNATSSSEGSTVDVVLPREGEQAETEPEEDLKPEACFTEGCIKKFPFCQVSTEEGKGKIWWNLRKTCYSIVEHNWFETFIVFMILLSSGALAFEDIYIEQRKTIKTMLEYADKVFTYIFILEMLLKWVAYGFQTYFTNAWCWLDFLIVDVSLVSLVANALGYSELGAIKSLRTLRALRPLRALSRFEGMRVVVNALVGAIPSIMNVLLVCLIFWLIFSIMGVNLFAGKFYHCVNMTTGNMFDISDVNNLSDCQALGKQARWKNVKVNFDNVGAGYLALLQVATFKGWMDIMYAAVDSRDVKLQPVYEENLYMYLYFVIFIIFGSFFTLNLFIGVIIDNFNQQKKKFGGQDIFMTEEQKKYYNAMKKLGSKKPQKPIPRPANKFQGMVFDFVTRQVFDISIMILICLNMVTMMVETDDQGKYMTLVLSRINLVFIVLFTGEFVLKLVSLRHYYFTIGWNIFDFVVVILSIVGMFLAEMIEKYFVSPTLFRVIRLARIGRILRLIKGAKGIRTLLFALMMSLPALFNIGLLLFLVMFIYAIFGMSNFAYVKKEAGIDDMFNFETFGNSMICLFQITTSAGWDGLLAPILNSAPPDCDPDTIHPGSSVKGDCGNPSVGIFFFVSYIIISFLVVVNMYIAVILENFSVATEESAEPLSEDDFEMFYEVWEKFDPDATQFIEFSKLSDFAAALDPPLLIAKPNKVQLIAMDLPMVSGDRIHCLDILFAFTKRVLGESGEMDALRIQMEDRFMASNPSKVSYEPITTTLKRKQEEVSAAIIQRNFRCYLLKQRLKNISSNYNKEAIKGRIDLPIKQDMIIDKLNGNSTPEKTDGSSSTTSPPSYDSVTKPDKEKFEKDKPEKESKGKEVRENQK

[6] = biological target: TTX-sensitive Nav channels in mouse DRG neurons
[7] = biological target: human Nav1.7 voltage-gated sodium channel (human) (UniProt Q15858)
[8] = biological target: human Nav1.8 voltage-gated sodium channel (human) (UniProt Q9Y5Y9)
[9] = biological target: human Nav1.5 voltage-gated sodium channel (human) (UniProt Q14524)
[10] = biological target: TTX-resistant Nav channels in mouse DRG neurons

Row | Substance | IC50 (IonWorks Quattro) [2] | IC50 (IonWorks Quattro) [3] | IC50 (IonWorks Quattro) [4] [µM] | IC50 (IonWorks Quattro) [5] | other results
1 | [Phe6,Atz(2 kDa EtO-PEG*-[Phe6,Atz13*]GpTx-1(1-34)1)13]GpTx-1(1-34) |  |  |  |  | Nav1.7 WCPC IC50 [1]: 0.00058 µM
2 | JzTx-45 (peptide) | > 5 µM | 0.084 µM | 2.4 | 1.8 µM | 
3 | JzTx-46 (peptide) | > 5 µM | 0.33 µM | > 5 | 5 µM | 
4 | JzTx-V(1-29)-FreeAcid (peptide) | > 5 µM | 0.17 µM | 0.61 | 0.78 µM | PX hNav1.7 Tonic IC50 [3]: 0.0131 µM
5 | JzTx-V(1-29) (peptide) | 3 µM and 3.5 µM | 0.005 µM and 0.006 µM |  | 0.08 µM and 0.1 µM | IC50, IonWorks Quattro electrophysiology [2]: > 7 µM; WCPC Mean IC50, fully non-inactivated [6]: 0.075 µM; WCPC Mean IC50, partially inactivated [6]: 0.018 µM; WCPC Mean IC50, fully non-inactivated [7]: 0.000141 µM; WCPC Mean IC50, partially inactivated [7]: 0.000161 µM; IC50, IonWorks Quattro electrophysiology [3]: 0.04 µM; WCPC Mean IC50, fully non-inactivated [8]: 0.81 µM; WCPC Mean IC50, partially inactivated [8]: 0.53 µM; IC50, IonWorks Quattro electrophysiology [4]: 0.2 µM; WCPC Mean IC50, fully non-inactivated [9]: 0.882 µM; WCPC Mean IC50, partially inactivated [9]: 0.426 µM; WCPC Mean IC50, fully non-inactivated [10]: > 1 µM; WCPC Mean IC50, partially inactivated [10]: > 1 µM
